“And” between values parts separate entries of the source, which are not always exact repeats. Equal values may be shown once. Numbered stars: 1 amine (or outer) side, 2 acyl side, 3 side chain; on linkers, the order of the positions; unused ones are H or OH. Bridge positions count the residues as written; N and C are the ends. Square brackets hold non-standard residues; d marks the D form. * marks the point of attachment. mXylylene = c1cc(C[*:1])cc(C[*:2])c1; PentylNH‑urea = CCCCCNC(=O)*; Octanoyl = CCCCCCCC(=O)*; Hexanoyl = CCCCCC(=O)*; Aib = CC(C)(N)C(=O)O
B1: Ac-Met-[Cys(3MeBn)-Pro-Pro-Thr-Glu-Phe-Cys]-Ala-His-Phe-Arg-Asp-NH2 (peptide)
peptide: Ac-MCPPTEFCAHFRD-NH2
modifications: linker 2-8 via mXylylene
SMILES: CSCC[C@H](NC(C)=O)C(=O)N[C@H]1CSCc2cccc(c2)CSC[C@@H](C(=O)N[C@@H](C)C(=O)N[C@@H](Cc2c[nH]cn2)C(=O)N[C@@H](Cc2ccccc2)C(=O)N[C@@H](CCCNC(=N)N)C(=O)N[C@@H](CC(=O)O)C(N)=O)NC(=O)[C@H](Cc2ccccc2)NC(=O)[C@H](CCC(=O)O)NC(=O)[C@H]([C@@H](C)O)NC(=O)[C@@H]2CCCN2C(=O)[C@@H]2CCCN2C1=O
notes: also called 3BP-3194
B2: Ac-Met-[Cys(3MeBn)-Pro-Pro-Thr-glu-Phe-Cys]-Asp-His-Phe-Arg-Asp-NH2 (peptide)
peptide: Ac-MCPPT[dE]FCDHFRD-NH2
modifications: linker 2-8 via mXylylene
SMILES: CSCC[C@H](NC(C)=O)C(=O)N[C@H]1CSCc2cccc(c2)CSC[C@@H](C(=O)N[C@@H](CC(=O)O)C(=O)N[C@@H](Cc2c[nH]cn2)C(=O)N[C@@H](Cc2ccccc2)C(=O)N[C@@H](CCCNC(=N)N)C(=O)N[C@@H](CC(=O)O)C(N)=O)NC(=O)[C@H](Cc2ccccc2)NC(=O)[C@@H](CCC(=O)O)NC(=O)[C@H]([C@@H](C)O)NC(=O)[C@@H]2CCCN2C(=O)[C@@H]2CCCN2C1=O
notes: also called 3BP-3179
B3: Ac-Met-[Cys(3MeBn)-Aib-Pro-Thr-Glu-Phe-Cys]-Asp-His-Phe-Arg-Asp-NH2 (peptide)
peptide: Ac-MC[Aib]PTEFCDHFRD-NH2
modifications: linker 2-8 via mXylylene
SMILES: CSCC[C@H](NC(C)=O)C(=O)N[C@H]1CSCc2cccc(c2)CSC[C@@H](C(=O)N[C@@H](CC(=O)O)C(=O)N[C@@H](Cc2c[nH]cn2)C(=O)N[C@@H](Cc2ccccc2)C(=O)N[C@@H](CCCNC(=N)N)C(=O)N[C@@H](CC(=O)O)C(N)=O)NC(=O)[C@H](Cc2ccccc2)NC(=O)[C@H](CCC(=O)O)NC(=O)[C@H]([C@@H](C)O)NC(=O)[C@@H]2CCCN2C(=O)C(C)(C)NC1=O
notes: also called 3BP-3204
B4: Ac-Met-[Cys(3MeBn)-Pro-Pro-thr-Glu-Phe-Cys]-Asp-His-Phe-Arg-Asp-NH2 (peptide)
peptide: Ac-MCPP[dT]EFCDHFRD-NH2
modifications: linker 2-8 via mXylylene
SMILES: CSCC[C@H](NC(C)=O)C(=O)N[C@H]1CSCc2cccc(c2)CSC[C@@H](C(=O)N[C@@H](CC(=O)O)C(=O)N[C@@H](Cc2c[nH]cn2)C(=O)N[C@@H](Cc2ccccc2)C(=O)N[C@@H](CCCNC(=N)N)C(=O)N[C@@H](CC(=O)O)C(N)=O)NC(=O)[C@H](Cc2ccccc2)NC(=O)[C@H](CCC(=O)O)NC(=O)[C@@H]([C@H](C)O)NC(=O)[C@@H]2CCCN2C(=O)[C@@H]2CCCN2C1=O
notes: also called 3BP-3178
B5: Ac-Met-[Cys(3MeBn)-Pro-Pro-Thr-Glu-Phe-Cys]-asp-His-Phe-Arg-Asp-NH2 (peptide)
peptide: Ac-MCPPTEFC[dD]HFRD-NH2
modifications: linker 2-8 via mXylylene
SMILES: CSCC[C@H](NC(C)=O)C(=O)N[C@H]1CSCc2cccc(c2)CSC[C@@H](C(=O)N[C@H](CC(=O)O)C(=O)N[C@@H](Cc2c[nH]cn2)C(=O)N[C@@H](Cc2ccccc2)C(=O)N[C@@H](CCCNC(=N)N)C(=O)N[C@@H](CC(=O)O)C(N)=O)NC(=O)[C@H](Cc2ccccc2)NC(=O)[C@H](CCC(=O)O)NC(=O)[C@H]([C@@H](C)O)NC(=O)[C@@H]2CCCN2C(=O)[C@@H]2CCCN2C1=O
notes: also called 3BP-3183
B6: Hex-[Cys(tMeBn(DOTA-NH))-Pro-Pro-Thr-Gln-Phe-Cys]-Asp-NH2 (peptide)
peptide: Hexanoyl-CPPTQFCD-NH2
modifications: linker 1-7 via tMeBn(DOTA-NH)
notes: also called 3BP-3556
B7: PentylNH-urea-[Cys(3MeBn)-Pro-Pro-Thr-Gln-Phe-Cys]-Asp-NH2 (peptide)
peptide: {PentylNH‑urea}-CPPTQFCD-NH2
modifications: linker 1-7 via mXylylene
SMILES: CCCCCNC(=O)N[C@H]1CSCc2cccc(c2)CSC[C@@H](C(=O)N[C@@H](CC(=O)O)C(N)=O)NC(=O)[C@H](Cc2ccccc2)NC(=O)[C@H](CCC(N)=O)NC(=O)[C@H]([C@@H](C)O)NC(=O)[C@@H]2CCCN2C(=O)[C@@H]2CCCN2C1=O
notes: also called 3BP-3425
B8: Oct-[Cys(3MeBn)-Pro-Pro-Thr-Gln-Phe-Cys]-Asp-NH2 (peptide)
peptide: Octanoyl-CPPTQFCD-NH2
modifications: linker 1-7 via mXylylene
SMILES: CCCCCCCC(=O)N[C@H]1CSCc2cccc(c2)CSC[C@@H](C(=O)N[C@@H](CC(=O)O)C(N)=O)NC(=O)[C@H](Cc2ccccc2)NC(=O)[C@H](CCC(N)=O)NC(=O)[C@H]([C@@H](C)O)NC(=O)[C@@H]2CCCN2C(=O)[C@@H]2CCCN2C1=O
notes: also called 3BP-3417

molecular target: Recombinant human FAP (R&D systems, #3715-SE) (human, UniProt Q12884 26-760); experiment: cell-based or functional assay

Row | pIC50 Category (Activity) | Binder
1 | 7.1 pIC50 and 8 pIC50 | B1
2 | 6.1 pIC50 and 7 pIC50 | B2
3 | 7.1 pIC50 and 8 pIC50 | B3
4 | 7.1 pIC50 and 8 pIC50 | B4
5 | 7.1 pIC50 and 8 pIC50 | B5
6 | 7.1 pIC50 and 8 pIC50 | B6
7 | > 8 pIC50 | B7
8 | 7.1 pIC50 and 8 pIC50 | B8

molecular target: T1, fibroblast activation protein (FAP) on FAP-expressing human WI-38 fibroblasts (human, UniProt Q12884 1-760); experiment: competitive FACS, WI-38 cells, vs Cy5 tracer m3; B = pIC50 7.1-8.0
T1 construct: also called human FAP

Row | pIC50 Category (FACS) | Binder
9 | 7.1 pIC50 and 8 pIC50 | B1
10 | 7.1 pIC50 and 8 pIC50 | B2
11 | 7.1 pIC50 and 8 pIC50 | B3
12 | 7.1 pIC50 and 8 pIC50 | B4
13 | 7.1 pIC50 and 8 pIC50 | B5
14 | 7.1 pIC50 and 8 pIC50 | B6
15 | 7.1 pIC50 and 8 pIC50 | B7
16 | 7.1 pIC50 and 8 pIC50 | B8

Reference: patent US20230212549A1 (3B PHARMACEUTICALS, published 2023)
